Experimental data: patent US20180362616

Molecular target: T1, APPI-WT (SEQ ID NO: 25), soluble, expressed in Pichia pastoris
T1 chain: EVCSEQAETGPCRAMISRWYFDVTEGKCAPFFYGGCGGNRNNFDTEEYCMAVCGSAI

B1: human mesotrypsin (catalytically active) (protein)
chain: IVGGYTCEENSLPYQVSLNSGSHFCGGSLISEQWVVSAAHCYKTRIQVRLGEHNIKVLEGNEQFINAAKIIRHPKYNRDTLDNDIMLIKLSSPAVINARVSTISLPTTPPAAGTECLISGWGNTLSFGADYPDELKCLDAPVLTQAECKASYPGKITNSMFCVGFLEGGKDSCQRDSGGPVVCNGQLQGVVSWGHGCAWKNRPGVYTKVYNYVDWIKDTIAANS
Question: For B1, which Kcat (s^-1) of hydrolysis of APPI by mesotrypsin (HPLC time course) is on record?
Answer: 0.0356 s⁻¹
